Test [1] has as its target BnCYP19-1 (Brassica napus).
In test [2] the target is AtCYP19-3 (Arabidopsis thaliana).
The target in test [3] is BnCYP18-4 (Brassica napus).
For test [4], the target named is BnCYP18-5 (Brassica napus).

Turning to cyclosporin A (peptide), the IC50 of CsA for inhibition of PPIase activity (protease-coupled assay, substrate Suc-AAPF-pNA, 5 nM protein, 0 to 1000 nM CsA, 4 °C) in test [1] amounted to 16.6 nM; in test [2], 20.4 nM; in test [3], 14.2 nM; in test [4] it was 22.4 nM.
